The values below come from US20220175977A1 (SORICIMED BIOPHARMA, published 2022).

Where no end group is shown, it is not given here.

One may read the Kd as the equilibrium constant for the complex coming apart. Low readings indicate tighter binding, high ones weaker binding.

The target in assay [1] is T1, TRPV6 (endogenous, in human cancer cell lines, tumour tissue and plasma) (human, UniProt Q9H1D0 1-765).
T1 construct: whole, on cells; also called Transient Receptor Potential Vanilloid 6; TRPV6 channel
T1 sequence (looked up): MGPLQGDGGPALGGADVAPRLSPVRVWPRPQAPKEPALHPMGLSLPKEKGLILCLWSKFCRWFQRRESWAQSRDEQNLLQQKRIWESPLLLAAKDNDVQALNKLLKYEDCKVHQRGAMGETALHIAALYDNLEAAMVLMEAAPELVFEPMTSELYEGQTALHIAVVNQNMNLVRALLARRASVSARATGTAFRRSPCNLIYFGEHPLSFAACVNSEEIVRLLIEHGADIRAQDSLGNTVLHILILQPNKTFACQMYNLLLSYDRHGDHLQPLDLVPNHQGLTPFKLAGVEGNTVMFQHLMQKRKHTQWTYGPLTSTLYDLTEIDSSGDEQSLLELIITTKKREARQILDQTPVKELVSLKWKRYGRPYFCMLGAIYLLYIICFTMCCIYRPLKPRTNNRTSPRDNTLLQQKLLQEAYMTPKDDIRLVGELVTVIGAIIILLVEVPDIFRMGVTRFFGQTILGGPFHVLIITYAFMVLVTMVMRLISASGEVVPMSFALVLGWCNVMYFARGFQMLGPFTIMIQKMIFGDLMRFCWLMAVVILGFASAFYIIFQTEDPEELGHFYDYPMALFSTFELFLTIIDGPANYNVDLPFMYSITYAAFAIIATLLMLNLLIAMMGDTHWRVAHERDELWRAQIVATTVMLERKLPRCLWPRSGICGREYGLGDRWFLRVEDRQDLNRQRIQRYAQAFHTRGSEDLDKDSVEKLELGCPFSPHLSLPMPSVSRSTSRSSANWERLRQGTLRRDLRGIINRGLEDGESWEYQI
Nature of the assay: fluorescence microscopy, SKOV-3 cells, not transfected (FIG. 9 A1-A3).

For assay [2], the target named is T1, TRPV6 (endogenous, in human cancer cell …). Nature of the assay: LNCaP model; method not described.

B1: SorC27-cy5.5 (peptide)
peptide: EGKLSSNDTEGGLC(Cy5.5)KEFLHPSKVDLPR
notes: also called SorC27-Cy5.5 compound; fluorescently labeled SorC27
For the molecule B1, the binding result in assay [1] is given as “binds”. In turn, KEFLHPSKVDLPR [SorC13] had a Kd in assay [2] of 100 nM. EGKLSSNDTEGGLCKEFLHPSKVDLPR [SorC27]: in assay [2], the Kd came to 140 nM.
